Test results as given in PMC3129213.

Key:
[1] = molecular target: CRD from SRCL (UniProt Q5KU26); experiment: radioligand binding
[2] = molecular target: Lactoferrin from human neutrophils (human); experiment: SPR

UniProt Q5KU26, sequence (Q5KU26 whole entry): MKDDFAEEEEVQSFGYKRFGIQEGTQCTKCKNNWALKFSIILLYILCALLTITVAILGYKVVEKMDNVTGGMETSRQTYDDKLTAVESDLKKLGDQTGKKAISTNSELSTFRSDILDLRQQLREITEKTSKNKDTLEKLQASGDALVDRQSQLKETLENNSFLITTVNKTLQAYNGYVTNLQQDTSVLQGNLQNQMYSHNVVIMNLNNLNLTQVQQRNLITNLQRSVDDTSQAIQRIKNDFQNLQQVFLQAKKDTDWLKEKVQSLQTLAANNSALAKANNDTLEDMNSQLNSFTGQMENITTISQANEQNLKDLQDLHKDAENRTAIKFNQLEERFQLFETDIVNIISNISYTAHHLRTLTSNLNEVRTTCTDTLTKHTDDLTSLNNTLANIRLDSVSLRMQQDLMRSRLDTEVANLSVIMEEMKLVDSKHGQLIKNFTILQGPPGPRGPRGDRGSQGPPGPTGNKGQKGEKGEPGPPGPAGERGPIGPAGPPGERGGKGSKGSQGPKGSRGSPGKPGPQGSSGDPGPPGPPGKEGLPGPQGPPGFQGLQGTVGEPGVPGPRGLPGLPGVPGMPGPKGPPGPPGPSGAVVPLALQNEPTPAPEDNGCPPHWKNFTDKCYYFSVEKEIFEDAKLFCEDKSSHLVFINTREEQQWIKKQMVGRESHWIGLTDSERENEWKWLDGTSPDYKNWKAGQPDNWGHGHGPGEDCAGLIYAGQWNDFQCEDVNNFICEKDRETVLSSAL

Ki [1] [µM] | Kd [2] [µM] | Substance
6.1 |  | Lactoferrin from human neutrophils (natural protein)
 | 4.7 | CRD from SRCL (from UniProt Q5KU26 1-742) (domain or fragment)
